Data set [1] addresses T1, recombinant full-length FIRRM (human, UniProt Q9NSG2 1-853).
T1 construct: full-length codon-optimized human FIRRM from GenScript; Insect cell form: modified pFastBac dual vector with an N-terminal GFP tag removable with TEV protease; also called iFIRRM (form from insect cells); source: purified from bacteria (E. coli BL21RP) or Sf9 insect cells
T1 sequence (looked up): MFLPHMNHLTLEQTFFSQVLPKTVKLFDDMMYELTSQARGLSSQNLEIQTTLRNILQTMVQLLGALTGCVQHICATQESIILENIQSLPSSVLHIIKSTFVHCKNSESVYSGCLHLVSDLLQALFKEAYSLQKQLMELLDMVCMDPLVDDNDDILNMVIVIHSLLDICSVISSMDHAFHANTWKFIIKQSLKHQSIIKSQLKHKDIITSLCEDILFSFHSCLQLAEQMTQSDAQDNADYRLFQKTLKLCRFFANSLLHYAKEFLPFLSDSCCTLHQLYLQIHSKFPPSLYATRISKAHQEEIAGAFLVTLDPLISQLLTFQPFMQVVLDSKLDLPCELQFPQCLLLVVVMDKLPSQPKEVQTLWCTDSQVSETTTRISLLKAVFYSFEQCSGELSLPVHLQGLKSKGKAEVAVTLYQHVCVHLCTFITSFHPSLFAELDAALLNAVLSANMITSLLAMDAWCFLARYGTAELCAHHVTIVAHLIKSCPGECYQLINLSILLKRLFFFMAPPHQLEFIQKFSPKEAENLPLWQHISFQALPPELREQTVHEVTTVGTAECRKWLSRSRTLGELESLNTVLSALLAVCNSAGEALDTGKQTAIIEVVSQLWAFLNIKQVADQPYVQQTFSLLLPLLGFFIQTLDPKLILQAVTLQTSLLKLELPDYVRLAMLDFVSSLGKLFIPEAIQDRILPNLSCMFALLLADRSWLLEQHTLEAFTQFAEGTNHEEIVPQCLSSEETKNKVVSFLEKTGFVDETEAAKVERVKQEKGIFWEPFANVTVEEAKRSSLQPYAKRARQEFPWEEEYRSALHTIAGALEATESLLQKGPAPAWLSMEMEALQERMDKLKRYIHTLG
Nature of the data set: co-IP; purified recombinant RAD51, FIRRM and FIGNL1 together; anti-RAD51 14B4 on protein A/G Sepharose; IPB buffer (20 mM KPO4 pH 7.4, 175 mM KCl, 0.5 mM EDTA, 0.5% NP-40, 10% glycerol, 1 mM DTT); Western blot. The following applies: both partners purified. Background: In western blotting, separated proteins are transferred to a membrane and probed.

Data set [2] deals with the molecule itself. Briefly: cryo-EM two-dimensional class averages; FIGNL1 10 μM in 1× PBS with 2 mM MgCl2 and 1 mM AMP-PNP on graphene oxide lacey carbon grids; 2D classes from 1287 particles; hexamer model from an AlphaFold monomer.

Two molecules from article PMC10411901, “FIRRM cooperates with FIGNL1 to promote RAD51 disassembly during DNA repair” (Science Advances, 2023) can be followed below.

B1: recombinant full-length FIGNL1 (natural protein, human, UniProt Q6PIW4 1-674, looked up)
chain: MQTSSSRSVHLSEWQKNYFAITSGICTGPKADAYRAQILRIQYAWANSEISQVCATKLFKKYAEKYSAIIDSDNVESGLNNYAENILTLAGSQQTDSDKWQSGLSINNVFKMSSVQKMMQAGKKFKDSLLEPALASVVIHKEATVFDLPKFSVCGSSQESDSLPNSAHDRDRTQDFPESNRLKLLQNAQPPMVTNTARTCPTFSAPVGESATAKFHVTPLFGNVKKENHSSAKENIGLNVFLSNQSCFPAACENPQRKSFYGSGTIDALSNPILNKACSKTEDNGPKEDSSLPTFKTAKEQLWVDQQKKYHQPQRASGSSYGGVKKSLGASRSRGILGKFVPPIPKQDGGEQNGGMQCKPYGAGPTEPAHPVDERLKNLEPKMIELIMNEIMDHGPPVNWEDIAGVEFAKATIKEIVVWPMLRPDIFTGLRGPPKGILLFGPPGTGKTLIGKCIASQSGATFFSISASSLTSKWVGEGEKMVRALFAVARCQQPAVIFIDEIDSLLSQRGDGEHESSRRIKTEFLVQLDGATTSSEDRILVVGATNRPQEIDEAARRRLVKRLYIPLPEASARKQIVINLMSKEQCCLSEEEIEQIVQQSDAFSGADMTQLCREASLGPIRSLQTADIATITPDQVRPIAYIDFENAFRTVRPSVSPKDLELYENWNKTFGCGK
notes: Insect cell form: modified pFastBac dual vector with an N-terminal GFP tag removable with TEV protease; source: purified from bacteria (E. coli BL21RP) or Sf9 insect cells
As to B1, the binding result in data set [1] is given as “binds”.

B2: FIGNL1 purified from insect cells (natural protein, human, UniProt Q6PIW4 1-674, looked up)
chain: MQTSSSRSVHLSEWQKNYFAITSGICTGPKADAYRAQILRIQYAWANSEISQVCATKLFKKYAEKYSAIIDSDNVESGLNNYAENILTLAGSQQTDSDKWQSGLSINNVFKMSSVQKMMQAGKKFKDSLLEPALASVVIHKEATVFDLPKFSVCGSSQESDSLPNSAHDRDRTQDFPESNRLKLLQNAQPPMVTNTARTCPTFSAPVGESATAKFHVTPLFGNVKKENHSSAKENIGLNVFLSNQSCFPAACENPQRKSFYGSGTIDALSNPILNKACSKTEDNGPKEDSSLPTFKTAKEQLWVDQQKKYHQPQRASGSSYGGVKKSLGASRSRGILGKFVPPIPKQDGGEQNGGMQCKPYGAGPTEPAHPVDERLKNLEPKMIELIMNEIMDHGPPVNWEDIAGVEFAKATIKEIVVWPMLRPDIFTGLRGPPKGILLFGPPGTGKTLIGKCIASQSGATFFSISASSLTSKWVGEGEKMVRALFAVARCQQPAVIFIDEIDSLLSQRGDGEHESSRRIKTEFLVQLDGATTSSEDRILVVGATNRPQEIDEAARRRLVKRLYIPLPEASARKQIVINLMSKEQCCLSEEEIEQIVQQSDAFSGADMTQLCREASLGPIRSLQTADIATITPDQVRPIAYIDFENAFRTVRPSVSPKDLELYENWNKTFGCGK
notes: The GFP tag is removable with tobacco etch virus protease; the results speak of the protein from insect cells; source: Sf9 insect cells (baculovirus), purified (gel filtration)
Take B2: the “stoichiometry N” value in data set [2] was 6.

By stoichiometry N is commonly meant the number of molecules, sites or subunits per partner or assembly.
